In patent US20250051437A1 (University of California, published 2025):
Where no end group is shown, it is not given here.

Assays:
[1] = target: T1, human cadherin-17 (CDH17), endogenously expressed on human cancer cell lines (LS513, SNU-C1, PaTu8988s, … (human, UniProt Q12864 23-832)); assay: flow cytometry on LS513 cells (CDH17+), 20 µg/ml
T1 construct: also called LS513 (Colon, CDH17+); HPAF2

[2] = target: T2, Peptide 1 (also: biotin label, position not given here); assay: titration ELISA, biotinylated peptide on streptavidin-coated plate
T2 construct: also called Original 7-mer peptide; LDANGII
T2 peptide: LDANGII

[3] = target: T3, Peptide 8 (also: biotin label, position not given here); assay: as above
T3 construct: LDANGII with the third residue A changed to G; also called LDGNGII
T3 peptide: LDGNGII

[4] = target: T4, Peptide 6 (also: biotin label, position not given here); assay: as above
T4 construct: LDANGII with the sixth residue I changed to A; also called LDANGAI
T4 peptide: LDANGAI

[5] = target: T5, Peptide 5 (also: biotin label, position not given here); assay: as above
T5 construct: LDANGII with the fifth residue G changed to A; also called LDANAII
T5 peptide: LDANAII

[6] = target: T6, Peptide 3 (also: biotin label, position not given here); assay: as above
T6 construct: LDANGII with the second residue D changed to A; also called LAANGII
T6 peptide: LAANGII

[7] = target: T7, Peptide 4 (also: biotin label, position not given here); assay: as above
T7 construct: LDANGII with the fourth residue N changed to A; also called LDAAGII
T7 peptide: LDAAGII

[8] = target: T8, Peptide 7 (also: biotin label, position not given here); assay: as above
T8 construct: LDANGII with the seventh residue I changed to A; also called LDANGIA
T8 peptide: LDANGIA

[9] = target: T9, Peptide 2 (also: biotin label, position not given here); assay: as above
T9 construct: LDANGII with the first residue L changed to A; also called ADANGII
T9 peptide: ADANGII

[10] = target: T1, human cadherin-17 (CDH17), endogenously …; assay: flow cytometry (iQue) on SNUC1 cells, 1 µg Ab
[11] = target: T1, human cadherin-17 (CDH17), endogenously …; assay: flow cytometry (iQue) on LS513 cells, 0.2 µg Ab
[12] = target: T10, human CDH17-mGFP fusion protein overexpressed on HEK293T cells (clone G11) (human, UniProt Q12864 23-832); assay: flow cytometry on HEK293T human CDH17mGFP G11, 20 µg/ml
T10 construct: also called HEK293T CDH17mGFP Clone G11; HEK293T Human CDH17mGFP G11; not shown: mGFP fluorescent protein fused to CDH17

[13] = target: T11, mouse CDH17-mGFP fusion protein overexpressed on HEK293T cells (mouse, UniProt Q9R100 26-827); assay: flow cytometry on HEK293T mouse CDH17mGFP mass population, 20 µg/ml
T11 construct: also called HEK293T Mouse CDH17mGFP mass; not shown: mGFP fluorescent protein
T11 sequence (Q9R100 26-827): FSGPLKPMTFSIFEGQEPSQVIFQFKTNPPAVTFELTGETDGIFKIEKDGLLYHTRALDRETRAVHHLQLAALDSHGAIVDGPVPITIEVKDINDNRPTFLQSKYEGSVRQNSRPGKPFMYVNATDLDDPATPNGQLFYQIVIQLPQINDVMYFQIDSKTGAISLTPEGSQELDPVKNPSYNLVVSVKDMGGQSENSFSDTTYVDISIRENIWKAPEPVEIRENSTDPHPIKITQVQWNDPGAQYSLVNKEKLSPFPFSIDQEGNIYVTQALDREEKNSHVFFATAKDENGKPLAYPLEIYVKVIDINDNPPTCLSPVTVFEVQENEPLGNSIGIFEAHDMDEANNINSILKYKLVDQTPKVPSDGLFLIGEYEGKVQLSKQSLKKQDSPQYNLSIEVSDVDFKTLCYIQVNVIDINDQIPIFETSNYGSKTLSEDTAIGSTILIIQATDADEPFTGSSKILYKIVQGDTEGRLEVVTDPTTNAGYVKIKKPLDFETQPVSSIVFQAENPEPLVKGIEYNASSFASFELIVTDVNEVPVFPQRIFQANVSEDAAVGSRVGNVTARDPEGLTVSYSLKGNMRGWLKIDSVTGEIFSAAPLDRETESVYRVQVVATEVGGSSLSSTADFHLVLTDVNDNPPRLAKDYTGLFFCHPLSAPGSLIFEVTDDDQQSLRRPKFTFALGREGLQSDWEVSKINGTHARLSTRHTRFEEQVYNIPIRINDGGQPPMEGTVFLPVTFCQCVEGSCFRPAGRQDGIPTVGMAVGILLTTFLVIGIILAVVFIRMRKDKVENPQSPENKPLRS

[14] = target: T10, human CDH17-mGFP fusion protein …; assay: flow cytometry (iQue) on HEK293T CDH17 mGFP clone G11 (human), 0.2 µg Ab
[15] = target: T1, human cadherin-17 (CDH17), endogenously …; assay: flow cytometry (iQue) on LS513 cells, 1 µg Ab
[16] = target: T12, rat CDH17 fused to moxGFP, overexpressed on HEK293T cells (rat, UniProt P55281 22-827); assay: flow cytometry (BD C6) on HEK293T Rat CDH17 moxGFP cells
T12 construct: whole, on cells; also called HEK293T Rat CDH17mGFP mass pop; rat CDH17-moxGFP
T12 sequence (P55281 22-827): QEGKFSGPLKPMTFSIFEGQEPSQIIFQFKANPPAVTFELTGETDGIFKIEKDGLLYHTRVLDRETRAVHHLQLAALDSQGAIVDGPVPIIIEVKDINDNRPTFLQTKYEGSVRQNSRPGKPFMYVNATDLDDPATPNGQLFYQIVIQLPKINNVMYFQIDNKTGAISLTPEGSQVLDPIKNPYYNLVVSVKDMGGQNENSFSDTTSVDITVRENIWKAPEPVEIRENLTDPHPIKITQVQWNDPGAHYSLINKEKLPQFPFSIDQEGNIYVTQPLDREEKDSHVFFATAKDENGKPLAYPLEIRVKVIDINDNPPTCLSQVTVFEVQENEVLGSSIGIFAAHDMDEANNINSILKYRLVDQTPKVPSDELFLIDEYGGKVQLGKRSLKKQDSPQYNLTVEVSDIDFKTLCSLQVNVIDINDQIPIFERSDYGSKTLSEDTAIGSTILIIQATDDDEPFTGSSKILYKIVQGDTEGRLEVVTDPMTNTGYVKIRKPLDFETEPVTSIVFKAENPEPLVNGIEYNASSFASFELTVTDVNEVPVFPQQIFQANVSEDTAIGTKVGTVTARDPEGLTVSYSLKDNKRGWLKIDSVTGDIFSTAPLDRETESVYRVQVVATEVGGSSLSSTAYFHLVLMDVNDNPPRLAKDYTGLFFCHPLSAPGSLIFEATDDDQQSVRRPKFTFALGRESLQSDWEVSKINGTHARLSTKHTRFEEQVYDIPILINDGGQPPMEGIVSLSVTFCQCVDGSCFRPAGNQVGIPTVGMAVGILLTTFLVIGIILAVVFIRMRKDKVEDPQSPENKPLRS
Procedure: To determine relative antigen binding strengths of the humanized antibodies, FACS assays were carried out as essentially described in Example 1. […] Using a BD Biosciences Accuri™ C6 Flow Cytometer (San Jose, CA), antibody binding based on Alexa Fluor® 647 fluorescence was measured in the FL4-H channel and fusion protein overexpression based on GFP fluorescence was measured in the FL1-H channel.

[17] = target: T1, human cadherin-17 (CDH17), endogenously …; assay: KinExA, cell-based, SNUC1 cells
[18] = target: T13, recombinant CDH17 extracellular domain (ECD) with 6x His tag (human, UniProt Q12864 23-787); assay: ELISA on recombinant CDH17 ECD-6xHis
T13 construct: also called Recombinant CDH17 ECD-6xhis tag

- Antibody Binding Activity by Flow Cytometry [1]: 74700
- ELISA reading at 1500 ng/ml antibody, lower of two rows [2]: 2.76
- ELISA reading at 1500 ng/ml antibody, upper of two rows [2]: 3.1
- ELISA reading at 1500 ng/ml antibody, lower of two rows [3]: 2.14
- ELISA reading at 1500 ng/ml antibody, upper of two rows [3]: 2.1
- ELISA reading at 1500 ng/ml antibody, lower of two rows [4]: 0.0357
- ELISA reading at 1500 ng/ml antibody, upper of two rows [4]: 0.0371
- binding result [4]: no binding (tested: 1500 ng/ml)
- ELISA reading at 1500 ng/ml antibody, lower of two rows [5]: 0.0383
- ELISA reading at 1500 ng/ml antibody, upper of two rows [5]: 0.0394
- binding result [5]: no binding (tested: 1500 ng/ml)
- ELISA reading at 1500 ng/ml antibody, lower of two rows [6]: 0.0369
- ELISA reading at 1500 ng/ml antibody, upper of two rows [6]: 0.0377
- binding result [6]: no binding (tested: 1500 ng/ml)
- ELISA reading at 1500 ng/ml antibody, lower of two rows [7]: 0.038
- ELISA reading at 1500 ng/ml antibody, upper of two rows [7]: 0.0379
- binding result [7]: no binding (tested: 1500 ng/ml)
- ELISA reading at 1500 ng/ml antibody, lower of two rows [8]: 2.74
- ELISA reading at 1500 ng/ml antibody, upper of two rows [8]: 2.8
- ELISA reading at 1500 ng/ml antibody, lower of two rows [9]: 2.71
- ELISA reading at 1500 ng/ml antibody, upper of two rows [9]: 2.65
- Antibody Binding Activity by Flow iQue [10]: 76100
- Antibody Binding Activity by Flow iQue [11]: 2.24e+06
- Cross Reactivity by Flow [12]: 57600
- Cross Reactivity by Flow [13]: 2420
- Antibody Binding Activity by Flow iQue [14]: 57600
- Antibody Binding Activity by Flow iQue [15]: 2.3e+06
- binding result [16]: no binding (tested: 1 µg)
- Kd [17]: 157 pM
- EC50 [18]: 1220 pM
B1: humanized anti-CDH17 antibody 07-0663-h7 (antibody, human IgG1, kappa, V domains shown)
VH: QVQLVQSGAEVKKPGSSVKISCKVSGYTFTDHTIHWMRQAPGQGLEWIGYIFPRDDIVVYAQKFQGRATLTADKSTSTAYMELSSLRSEDTAVYYCARPPYYYSRNFYFDYWGQGTTLTVSS
VL: DIQMTQSPSSLSASVGDRVTITCRVSSIISSSKLHWYQQKPGKAPKPLIYGTSTLASGVPSRFSGSGSGTDYTLTISSLQPEDFATYYCQQWSNYPFTFGQGTKLEIKR
notes: Human IgG1 / kappa
